# Target: AMDV VP2 (Aleutian mink disease virus, UniProt A0A168PAM8 200-588)
# Experiment: ELONA
# Details: protein: recombinant; tags: His
row,Binder,Kd [nM]
1,ADVa001 (ssDNA) DNA: AGCAGCACAGAGGTCAGATGGTGTGTGTGTGTGTGTGTGTGCCTATGCGTGCTACCGTGACCTATGCGTGCTACCGTGAA,566 ± 127
2,ADVa011 (ssDNA) DNA: AGCAGCACAGAGGTCAGATGGGGTTGTCGGTGTTTGCGGGCCTATGCGTGCTACCGTGAACCTATGCGTGCTACCGTGAA,2090 ± 754
3,ADVa012 (ssDNA) DNA: AGCAGCACAGAGGTCAGATGAGCTAGTGCCTATGCGTGCTACCGTGAATAGCGTCAGCAGCCTATGCGTGCTACCGTGAA,930 ± 285
4,ADVa014 (ssDNA) DNA: AGCAGCACAGAGGTCAGATGTGTTGTCCCGGGGCCCTATGCGTGCTACCGTGAATAGCGTCCTATGCGTGCTACCGTGAA,247 ± 62.5

# Reference: paper PMC7907208, “Aptamer-targeting of Aleutian mink disease virus (AMDV) can be an effective strategy to inhibit virus replication”
